In US6576455B1, “Structure-based designed herbicide resistant products” (priority 1995, dated 2003):
Changes are numbered by the printed parent chain.

T1: Maize AHAS (Zea mays, UniProt Q41769)
T1 construct: residue #2 corresponds to the putative amino terminus of the mature protein, i.e., after removal of a chloroplast targeting peptide; GST (glutathione S-transferase, pGEX-2T) (N, cleaved yes); made in house; host or cells: E. coli (DH5α), pGEX-2T vector pAC751
T1 sequence (Q41769 40-638): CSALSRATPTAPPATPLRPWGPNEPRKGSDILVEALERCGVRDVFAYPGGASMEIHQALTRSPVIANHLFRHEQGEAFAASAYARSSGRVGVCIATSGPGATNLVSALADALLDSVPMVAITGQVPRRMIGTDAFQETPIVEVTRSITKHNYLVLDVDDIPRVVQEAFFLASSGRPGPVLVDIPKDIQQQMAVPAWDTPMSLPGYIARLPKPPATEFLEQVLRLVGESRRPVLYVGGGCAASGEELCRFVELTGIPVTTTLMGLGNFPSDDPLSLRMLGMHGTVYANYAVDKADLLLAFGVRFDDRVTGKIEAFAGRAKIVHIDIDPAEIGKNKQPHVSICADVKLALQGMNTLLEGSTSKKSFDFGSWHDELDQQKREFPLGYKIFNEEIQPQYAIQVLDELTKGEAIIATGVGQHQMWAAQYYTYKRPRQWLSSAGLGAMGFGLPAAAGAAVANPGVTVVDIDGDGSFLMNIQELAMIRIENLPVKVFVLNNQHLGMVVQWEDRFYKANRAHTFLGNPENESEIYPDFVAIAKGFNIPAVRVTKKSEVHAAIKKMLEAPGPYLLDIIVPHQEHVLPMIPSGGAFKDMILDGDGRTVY

B1: Maize AHAS: wild type maize AHAS expressed from pAC751 in E. coli and purified, 65 kD (SEQ ID NO:1) (protein)
chain: GSAASPAMPMAPPATPLRPWGPTDPRKGADILVESLERCGVRDVFAYPGGASMEIHQALTRSPVIANHLFRHEQGEAFAASGYARSSGRVGVCIATSGPGATNLVSALADALLDSVPMVAITGQVPRRMIGTDAFQETPIVEVTRSITKHNYLVLDVDDIPRVVQEAFFLASSGRPGPVLVDIPKDIQQQMAVPVWDKPMSLPGYIARLPKPPATELLEQVLRLVGESRRPVLYVGGGCARSGEELRRFVELTGIPVTTTLMGLGNFPSDDPLSLRMLGMHGTVYANYAVDKADLLLALGVRFDDRVTGKIEAFASRAKIVHVDIDPAEIGKNKQPHVSICADVKLALQGMNALLEGSTSKKSFDFGSWNDELDQQKREFPLGYKYSNEEIQPQYAIQVLDELTKGEAIIGTGVGQHQMWAAQYYTYKRPRQWLSSAGLGAMGFGLPAAAGASVANPGVTVVDIDGDGSFLMNVQELAMIRIENLPVKVFVLNNQHLGMVVQWEDRFYKANRAHTYLGNPENESEIYPDFVTIAKGFNIPAVRVTKKNEVRAAIKKMLETPGPYLLDIIVPHQEHVLPMIPSGGAFKDMILDGDGRTVY
modifications: Zea Mays
B2: Met124Ile: Arabidopsis AHAS variant (and gene) with Met124Ile mutation, corresponding to maize Met53Ile; vector pJK002 (protein, UniProt P17597 56-670, looked up, variant M124I)
Acetolactate synthase, …: SSSPSSISAVLNTTTNVTTTPSPTKPTKPETFISRFAPDQPRKGADILVEALERQGVETVFAYPGGASIEIHQALTRSSSIRNVLPRHEQGGVFAAEGYARSSGKPGICIATSGPGATNLVSGLADALLDSVPLVAITGQVPRRMIGTDAFQETPIVEVTRSITKHNYLVMDVEDIPRIIEEAFFLATSGRPGPVLVDVPKDIQQQLAIPNWEQAMRLPGYMSRMPKPPEDSHLEQIVRLISESKKPVLYVGGGCLNSSDELGRFVELTGIPVASTLMGLGSYPCDDELSLHMLGMHGTVYANYAVEHSDLLLAFGVRFDDRVTGKLEAFASRAKIVHIDIDSAEIGKNKTPHVSVCGDVKLALQGMNKVLENRAEELKLDFGVWRNELNVQKQKFPLSFKTFGEAIPPQYAIKVLDELTDGKAIISTGVGQHQMWAAQFYNYKKPRQWLSSGGLGAMGFGLPAAIGASVANPDAIVVDIDGDGSFIMNVQELATIRVENLPVKVLLLNNQHLGMVMQWEDRFYKANRAHTFLGDPAQEDEIFPNMLLFAAACGIPAARVTKKADLREAIQTMLDTPGPYLLDVICPHQEHVLPMIPSGGTFNDVITEGDGRIKY
B3: Met124His: Arabidopsis AHAS variant (and gene) with Met124His mutation, corresponding to maize Met53His; vector pJK003 (protein, UniProt P17597 56-670, looked up, variant M124H)
Acetolactate synthase, …: B2 Acetolactate synthase, … with I69H
B4: Arg199Glu: Arabidopsis AHAS variant (and gene) with Arg199Glu mutation, corresponding to maize Arg128Glu; vector pJK004 (protein, UniProt P17597 56-670, looked up, variant R199E)
Acetolactate synthase, …: B2 Acetolactate synthase, … with I69M, R144E

How the values were obtained:
Maize AHAS = target: T1, Maize AHAS; test: Enzymatic activity and cofactor dependence of purified maize AHAS expressed from pAC751; format: biochemical
Experimental: E. coli (DH5α) cells transformed with the pGEX-2T vector containing either the maize wild type AHAS gene (vector designation pAC751), the Arabidopsis Ser653Asn mutant, or the Arabidopsis Ile401Phe mutant were grown overnight in LB broth containing 50 μg/mL ampicillin. The overnight culture of E. coli was diluted 1:10 in 1 L LB, 50 μg/mL ampicillin, and 0.1% v/v antifoam A. The culture was incubated at 37° C. with shaking until the OD600 reached approximately 0.8. Isopropylthiogalactose (IPTG) was added to a final concentration of 1 mM and the culture was incubated for 3 more hours.
Cells were harvested by centrifugation at 8,670×g for 10 minutes in a JA-10 rotor and resuspended in 1/100th of the original culture volume in MTPBS (16 mM Na2HPO4, 4 mM NaH2PO4, 150 mM NaCl, pH 7.3). Triton X-100 and lysozyme were added to a final concentration of 1% v/v and 100 μg/mL, respectively. Cells were incubated at 30° C. for 15 minutes cooled to 4° C. on ice, and were lysed by sonication for 10 seconds at level 7 with a Branson Sonifier Cell Disrupter equipped with a microtip probe. The cell free extract was centrifuged at 35,000×g for 10 min. at 4° C. The supernatant was decanted and the centrifugation step was repeated.
Purification of expressed fusion proteins was performed as modified from Smith and Johnson (Gene 67:31-40, 1988). […]

[1] = format: physicochemical, Zea mays
Experimental: The fusion protein was digested overnight at room temperature. Digested samples were dialyzed against MTPBS and passed twice through a glutathione-agarose column equilibrated in MTPBS to remove the released glutathione transferase protein. […] The concentrated sample was loaded onto a 1.5×95 cm Sephacryl S-100 gel filtration column equilibrated in gel filtration buffer (50 mM HEPES, 150 mM NaCl, pH 7.0). Two mL fractions were collected at a flow rate of 0.14 mL/min. Enzyme stability was tested by storage of the enzyme at 4° C. in gel filtration buffer with the addition of 0.02% sodium azide and in the presence or absence of 2 mM thiamine pyrophosphate and 100 μM flavin adenine dinucleotide (FAD).
Maize AHAS expressed and purified from pAC751 as described in Example 3 above is active in the conversion of pyruvate to acetolactate. Full AHAS activity is dependent on the presence of the cofactors FAD and TPP in the assay medium. […] The activity of the purified enzyme with TPP only, or with no cofactors, was less than 1% of the activity detected in the presence of both TPP and FAD. Normally, AHAS present in crude plant extracts is very labile, particularly in the absence of substrate and cofactors.

Arabidopsis AHAS protein [2] = details: no herbicide; for Specific Activity: b134 expresses specific activity as units/mg pure AHAS, 1 unit = 1 μmole acetolactate produced/hour; for % Catalytic Activity as Compared to Wild Type: relative to wild-type AHAS
Experimental: (a) specific or catalytic activity for conversion of pyruvate to acetolactate (expressed as units/mg pure AHAS, wherein a unit of activity is defined as 1 μmole acetolactate produced/hour), or for condensation of pyruvate and 2-ketobutyrate to form acetohydroxybutyrate (expressed as units/mg pure AHAS, wherein a unit of activity is defined as 1μ mole acetohydroxybutyrate produced/hr.;
(§1) The enzymatic properties of wild-type and variant AHAS produced in E. coli were measured by a modification of the method of Singh et al. (Anal. Biochem […]:173-179, 1988) as follows:
(§2) A reaction mixture containing 1× AHAS assay buffer (50 mM HEPES pH 7.0, 100 mM pyruvate, 10 mM MgCl2, 1 mM thiamine pyrophosphate (TPP), and 50 μM flavin adenine dinucleotide (FAD)) was obtained either by dilution of enzyme in 2× assay buffer or by addition of concentrated enzyme to 1× AHAS assay buffer. All assays containing imazethapyr and associated controls contained a final concentration of 5% DMSO due to addition of imazethapyr to assay mixtures as a 50% DMSO solution. Assays were performed in a final volume of 250 μL at 37° C. in microtiter plates. After allowing the reaction to proceed for 60 minutes, acetolactate accumulation was measured […] as described by Singh et al., Anal. Biochem 171:173-179, 1988.

Arabidopsis AHAS protein [3] = details: increasing concentrations of imazethapyr, 5% DMSO; FIGS. 7, 9, 10, 11
Experimental: as §1, §2

tobacco plants = test: Spraying of transformed tobacco plants with imazethapyr; format: in vivo, Nicotiana tabacum cv. Wisconsin 38; details: twice the field rate (100 g/ha) of imazethapyr
Experimental: Leaf disc transformation of Nicotiana tabacum cv. Wisconsin 38 was performed as described by Horsch et al. (Science, 227: 1229-1231, 1985) with slight modifications. Leaf discs were cut from plants grown under sterile conditions and co-cultivated upsidedown in Murashige Skoog media (Sigma Chemical Co., St. Louis, Mo.) for 2-3 days at 25° C. in darkness with Agrobacterium tumefaciens strains containing plasmids pJK002, pJK003, or pJK004. The discs were blotted dry and transferred to regeneration Murashige Skoog medium with B5 vitamins containing 1 mg/L benzyladenine and 0.1 mg/l 1-Napthyl Acetic Acid, 100 mg/L kanamycin, and 500 mg/L cefotaxime (all obtained from Sigma).
Kanamycin-resistant tobacco shoots were transferred to medium containing a 0.25 μM imazethapyr.

Row | Molecule | AHAS activity when only FAD was added to the assay medium (Maize AHAS; FAD only, no TPP) | activity with TPP only, or with no cofactors, relative to activity in the presence of both TPP and FAD (Maize AHAS; TPP only or no cofactors) | degradation products in SDS-PAGE gels after storage [1] | catalytic activity after storage ([1]; one month at 4° C. in 50 mm HEPES pH 7.0, 150 mM NaCl, 0.02% NaN3, presence or absence of FAD and TPP) | Specific Activity (Arabidopsis AHAS protein [2]) | % Catalytic Activity as Compared to Wild Type (Arabidopsis AHAS protein [2]) | resistance of enzymatic activity to imazethapyr (PURSUIT) (Arabidopsis AHAS protein [3]) | resistance of transformed tobacco plants to spraying with imazethapyr (tobacco plants)
1 | B1 | No activity was detected | less than 1% | no degradation products were visible | no lose in catalytic activity |  |  |  | 
2 | B2 |  |  |  |  | 102 | 102% | significant level of imidazolinone resistance | resistant
3 | B3 |  |  |  |  | 42.5 | 42.6% | high degree of resistance | 
4 | B4 |  |  |  |  | 114 | 114% | improved levels of resistance | resistant
